{
  "source": "the nanobody polyreactivity screen of Harvey et al. (2022)",
  "data": [
    {"assay": "yeast display, Sf9 membrane polyspecificity reagent, FACS + sequencing; frameworks hold sequencing errors", "outline": "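Using colony PCR, genes from sorted yeast display clones were amplified, then sequenced on MiSeq at 2 × 250 and filtered by CDR length. The clones had been stained with 10% biotinylated, detergent-solubilized Sf9 membrane reagent for 1 hour at 4 °C and sorted by FACS into low and high (top ~1%) gates on anti-HA and streptavidin fluorescence. Polyreactivity labels come from the gate of origin.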", "values": [
      {"sequence": "QVQLVESGGGLVQAGGSLRLSCAASGSTFGSYARGWYRPAPGKERELVAAISRTGGSTRYADSVKGRFTISRDNAQNSVYFQMNSLKPEDSAVYYCNARLSSYSTIRGVYWGQGTQVTVSS", "polyreactivity (PSR sort gate)": "high polyreactivity"},
      {"sequence": "QVQLVESGGGLVQAGGSLRLSCAASGSTFGTYAMGWYRQAPGKERELVAAISSGDSTTYADSVKGRFTISRDNAKNTVYLQMNSLKPEDTAVYYCAARTFLMRNGGYNYWGQGTQVTVSS", "polyreactivity (PSR sort gate)": "low polyreactivity"},
      {"sequence": "QVQLVESGGGLVQAGGSLRLSCAASGSTFGTYAMGWYRQAPGKERELVAAITSGGSTDYADSVKGRFTISRDNAKNTVYLQMNSLKPEDTAVYYCNATWELLSYYYLFWGYDYWGQGTQVTVSS", "polyreactivity (PSR sort gate)": "low polyreactivity"},
      {"sequence": "QVQLVESGGGLVQAGGSLRLSCAASGSTFGVNAMGWYRQAPGKERELVAAIRSAVPTYYADSVKGRFTISRDNAKNTVYLQMNSLKPEDTAVYYCAKRWSAKYGFYYWGQGTQVTVSS", "polyreactivity (PSR sort gate)": "high polyreactivity"},
      {"sequence": "QVQLVESGGGLVQAGGSLRLSCAASGSTFGVNAMGWYRQAPGKERELVATISRGTSTNYADSVKGRFTISRDNAKNTVYLQINSLKPEDTAVYYCAKRVFYPGAYRYYYWGQGTQVTVSS", "polyreactivity (PSR sort gate)": "high polyreactivity"},
      {"sequence": "QVQLVESGGGLVQAGGSLRLSCAASGSTFGVNAMGWYRQAPGKERELVAVITRSGGSTYYADSVKGRFTISRDNAKNTVYLQMNSLKPEDTAVYYCAKSGVVDWGQGTQVTVSS", "polyreactivity (PSR sort gate)": "low polyreactivity"},
      {"sequence": "QVQLVESGGGLVQAGGSLRLSCAASGSTFGVNAMGWYRQAPGTERELVADISVRTDSTYYADSVKGRVTISRDNAKNTVYLQMNSLKAEDTAVYYCNAGLGIEYDYWGQGTQVSVSS", "polyreactivity (PSR sort gate)": "low polyreactivity"},
      {"sequence": "QVQLVESGGGLVQAGGSLRLSCAASGSTFGVYAMGWYRQAPGKEREFVAAISSSDGSTYYADSVKGRFTISRDNAKNTVYLQMNSLKPEDTAVYYCAKRGGYIYYAVTFTAEHGYWGQGTQVTVSS", "polyreactivity (PSR sort gate)": "low polyreactivity"},
      {"sequence": "QVQLVESGGGLVQAGGSLRLSCAASGSTFGVYAMGWYRQAPGKERELVAAISGSGAGTYYADSVKGRFTISRDNAKNTVYLQMNSLKPEDTAVYYFNKVSVRGQRYGYWGQGTQVTVSS", "polyreactivity (PSR sort gate)": "high polyreactivity"},
      {"sequence": "QVQLVESGGGLVQAGGSLRLSCAASGSTFGVYGMGWYRQAPGKERELVASITSDGNTNYADSVKGRFTISRDNAKNTVYLQMNSLKPEDTAVYYCNTVGIQALYDYWGQGTQVTVSS", "polyreactivity (PSR sort gate)": "low polyreactivity"},
      {"sequence": "QVQLVESGGGLVQAGGSLRLSCAASGSTFGWYAMGWYRQAPGKEREFVAAISWSGTSTYYADSVKGRFTISRDNAKNTVYLQMNSLKPEDTAVYYCNARSKRANRSLGLGYWGQGTQVTVSS", "polyreactivity (PSR sort gate)": "low polyreactivity"},
      {"sequence": "QVQLVESGGGLVQAGGSLRLSCAASGSTFGWYTMGWYRQAPGKERELVAAITSRGTRTSYADSVKGRFTISRDYAKNTVYLQMNSLKPEDTAVYYCAARVFRGLGEYYWGQGTQVTVSS", "polyreactivity (PSR sort gate)": "high polyreactivity"},
      {"sequence": "QVQLVESGGGLVQAGGSLRLSCAASGSTFGYAMGWYRQAPGKEREMVAAITSTGGSTYYADSVKGRFTISRDNAKNTVYVQMHSLKPEDTAVYYCAAQVGRGYEVYPVYKYGYWGQGTQVTVSS", "polyreactivity (PSR sort gate)": "high polyreactivity"},
      {"sequence": "QVQLVESGGGLVQAGGSLRLSCAASGSTFGYNAMGWDRQAPGKERELVAAITGNDGTTYYADSVKGRFTISRDNAKNSVYLQMNSLKPEDSAVYYCAARPYLGYIGYEYWGQGTQVTVSS", "polyreactivity (PSR sort gate)": "low polyreactivity"},
      {"sequence": "QVQLVESGGGLVQAGGSLRLSCAASGSTFGYNAMGWYRQAPGKERELVAAISNGSDRTYYADSVKGRFTISRDNAKNTVYLQMNSLKPEDTAVYYCAKDRDFSSPPTESGFDYWGQGTQVTVSS", "polyreactivity (PSR sort gate)": "low polyreactivity"},
      {"sequence": "QVQLVESGGGLVQAGGSLRLSCAASGSTFGYNAMGWYRQAPGKERELVAAISRGGRITYYADSVKGRFTISRDNAKNTVYLQMNSLKQEDTAVYNCAARVQWRGYGYYYWGQGTQVTVSS", "polyreactivity (PSR sort gate)": "high polyreactivity"}
    ]}
  ]
}
